{"source": "patent US20210292393A1", "about": "(published 2021)", "binders": {"B1": {"name": "anti-SARS-CoV-2 antibody 966 (antibody, V domains shown)", "VH": "QVQLVESGGGVVQPGRSLRLSCAASEFTFSSYGMHWVRQAPGKGLEWVAVISHDGSNEYYADSVKGRFTISRDNSKNTLYLQMNSLRAEDTAVYYCAKWRGPHRGYYDRSGYYLGSSRDDYWGQGTLVTVSS", "VL": "not shown"}, "B2": {"name": "antibody 452 (antibody, V domains shown)", "VH": "QVQLVESGGGLVKPGGSLRLSCAASGFTFSDYYLSWIRQAPGKGLEWVSYISSSGSNIYYADSVKGRFTISRDNAKNSLYLQMNSLRADDTAVFYCARAGRYCSGGSCRVEYFQHWGQGTLVTVSS", "VL": "SYELTQPPSVSVSPGQTARITCSGDALPKQYAYWYQQKPGQAPVLVIYKDNERPSGIPERFSGSSSGTTATLTISGVQAEDEADYYCQSADSSGTVVFGGGTKLTVL"}, "B3": {"name": "antibody 454 (antibody, V domains shown)", "VH": "QVQLVQSGAEVKKPGASLKVSCKASGYIFTGYYMHWVRQAPGQGLEWMGWISPNSGGTKYAQKFQGRVTMTRDTSISTAYMELSRLRSDDSAVYYCAREPYYDILTGYYTPRRYLDYWGQGTLVTVSS", "VL": "QSALTQPASVSGSPGQSITISCTGTSSDVGDYNYVSWYQQHPGKVPKLMIYDVSHRPSGVTNRFSGSKSGNTASLTISGLRAEDEADYYCSSYTSSSTYVFGTGTKVTVL"}, "B4": {"name": "antibody 470 (antibody, V domains shown)", "VH": "not shown", "VL": "QSALTQPASVSGSPGQSITISCTGTSSDVGSYNLVSWYQQHPGKAPKLMIYEVSKRPSGVSNRFSGSKSGNTASLTISGLQAEDEADYYCCSYAGSSTLVFGGGTKLTVL"}, "B5": {"name": "antibody 485 (antibody, V domains shown)", "VH": "QVQLQESGPGLVKPSGTLSLTCAVSGASISSSNWWSWVRQPPGKGLEWIGEIYHSGSTNYNPSLKSRVTISVDKSKNQFSLKLSSVTAADTAVYYCARRSYYGSGSYYPFDYWGQGTLVTVSS", "VL": "B4 VL with V53G, S54R, L99Y, G103T, L107V"}, "B6": {"name": "antibody 474 (antibody, V domains shown)", "VH": "EVQLVESGGGLVQPGGSLRLSCAASGFTFSSYWMHWVRQAPGKGLVWVSRINSDGSSTSYADSVKGRFTISRDNAKNTLYRQMNSLRAEDTAVYYCALGPLDIVGSYYYYGMDVWGQGTTVTVSS", "VL": "NFMLTQPHSVSESPGKTVTISCTGSSGSIASNYVQWYQQRPGSAPTTVIYEDNQRPSGVPDRFSGSIDSSSNSASLTISGLKTEDEADYYCQSYDSSNQDVVFGGGTKLTVL"}, "B7": {"name": "antibody 477 (antibody, V domains shown)", "VH": "QVQLVESGGGVVQPGRSLRLSCAASGITFSSYAMHWVRQAPGKGLEWVAVISYDGSDKYHADSVKGRFAISRDNSKNTLYLQMNSLRAEDTAVYYCAKDKGIAVAGTGWIRPDPEYYFDYWGQGTLVTVSS", "VL": "not shown"}, "B8": {"name": "antibody 476 (antibody, V domains shown)", "VH": "QVQLVQSGSELKKPGASVKVSCKASGYTFTSYAMNWVRQAPGQGLEWMGWINTNTGNPTYAQGFTGRFVFSLDTSVSTAYLQISSLKAEDTGVYYCARDHELPNSSSWFGHFEYWGQGTLVTVSS", "VL": "SYELTQPPSVSVSPGQTARITCSGDALPKQYAYWYQQKAGQAPVLVIYKDSERRSGIPERFSGSSSGTTVTLTISGVQAEDEADYYCQSADSSGTSVVFGGGTKLTVL"}, "B9": {"name": "antibody 475 (antibody, V domains shown)", "VH": "QVQLVESGGGVVQPGRSLRLSCAASGFTFSSYAMHWVRQAPGKGLEWVTFISHEGSNKYYADSVKGRFTISRDNSKNTLYLQMNSLRAEDTAVYYCARTFEYSSSSATGDFDYWGQGTLVTVSS", "VL": "QSVLTQPPSVSGAPGQRVTISCTGSSSNIGAGYDVHWYQQLPGTAPKLLIYGNSNRPSGVPDRFSGSKSGTSASLAITGLQAEDEADYYCQSYDSSLSGVVFGGGTKLTVL"}, "B10": {"name": "antibody 548 (antibody, V domains shown)", "VH": "QVQLVESGGGVVQPGRSLRLSCAASGFTFSSYAMHWVRQAPGKGLEWVAVISYDGSNKYYADSVKGRFTISRDNSKNTLYLQMNNLRAEDTAVYYCAKSGSGSYLSAFDIWGQGTMVTVSS", "VL": "not shown"}, "B11": {"name": "antibody 576 (antibody, V domains shown)", "VH": "B10 VH with N85S, S99A, S101G, L105Y, S106R, A107G, I110Y, M116L", "VL": "DIQLTQSPSFLSASVGDRVTITCRASQGISSYLAWYQQKPGKAPKLLIYAASTLQSGVPSRFSGSGSGTEFTLTISSLQPEDFATYYCQQLNSYPTFGPGTKVDIK"}, "B12": {"name": "antibody 569 (antibody, V domains shown)", "VH": "B10 VH with N85S, K98R, S99A, G100S, S103G, L105Q, S106G, A107P, I110P, M116L", "VL": "EIVLTQSPATLSLSPGERATLSCRASQSVSSYLAWYQQKPGQAPRLLIYDASNRATGIPARFSGSGSGTDFTLTISSLEPEDFAVYYCQQRSSPFGPGTKVDIK"}, "B13": {"name": "antibody 563 (antibody, V domains shown)", "VH": "QVQLVESGGGVVQPGRSLRLSCAASGFTFSSYAMHWVRQAPGKGLEWVAVISDDGSNKYYADSVKGRFTISRDNSKNTLYLQMNSLRAEDTAVYYCARDIVATIRRLFDYWGQGTLVTVSS", "VL": "not shown"}, "B14": {"name": "antibody 560 (antibody, V domains shown)", "VH": "EVQLVESGGGLVQPGGSLRLSCAASGFTISSNYMSWVRQAPGKGLEWVSVIYSGGSTYYADSVKGRFTISRDNSKNTLYLQMNSLRAEDTAVYYCAREEGEWEKDYYGMDVWGQGTTVTVSS", "VL": "not shown"}, "B15": {"name": "antibody 546 (antibody, V domains shown)", "VH": "QVQLVESGGGVVQPGRSLRLSCAASGFTFSSYGMHWVRQAPGKGLEWVAVIWYDGSNKYYADSVKGRFTISRDNSKNTLYLQMNSLRAEDTAVYYCARNCGGDCVAGDGFDYWGQGTLVTVSS", "VL": "DIQMTQSPSSLSASVGDRVTITCRASQSISSYLNWYQQKPGKAPNLLIYAASSLQSGVPSRFSGSGSGTDFTLTISSLQPEDFATYYCQQSYSALTWTFGQGTKVEIK"}, "B16": {"name": "antibody 556 (antibody, V domains shown)", "VH": "QVQLVESGGGVVQPGRSLRLSCAASGFTFSSYAMHWVRQAPGKGLEWVAVISYDGSDKYYADSVKGRVTISRDNSKNTLYLQMNSLRVEDTAVFYCAKDDCSGGVCFPDYWGQGTLVTVSS", "VL": "B4 VL with S31G, L34Y, K55I, D87A, C91S, A94T, G95S"}, "B17": {"name": "antibody 544 (antibody, V domains shown)", "VH": "QVQLQQWGAGLLKPSETLSLTCAVYGGSFSGYYWSWIRQPPGKGLEWIGEINHSGSTNYNPSLKSRVTISVDTSKNQFSLKLSSVTAADTAVYYCARGFKWFGELLFGAQGTLVTVSS", "VL": "not shown"}, "B18": {"name": "antibody 564 (antibody, V domains shown)", "VH": "QVHLVESGGGVVQPGKSLRLSCAASGFIFSSFGMHWVRQPPGKGLEWLAVVSYDGSVTKYSDSFEGRFTISRDNSKNTLYLQMDSLRPEDTAVYYCAKGQGTNLLHYWGQGILVTVSS", "VL": "DVVLSQSPLSLPVTLGQPASISCRSSESLVYTDGDTYLHWFHQRPGQSPRRLIFKVSHRESGVPDRISGSGSGTDFTLKISRVEAEDVGVYYCMQGTHWPFTFGPGTKVDIK"}, "B19": {"name": "antibody 571 (antibody, V domains shown)", "VH": "EVQLVESGGGLVQPGGSLRLSCAASGFTFSTYWMTWVRQAPGKGLEWVANIKHDGSGKYHVDSVKGRFTISRDNAKNSLYLQMNSLRAEDTAVYYCTRDEGGWYDYWGQGTLVTVSS", "VL": "QSALTQPASVSGSPGQSITISCTGTSSDVGSYNPVSWYQQHPGKAPKVMIYEGSKRPSGVSNRFSGSKSGNTASLTISGLQAEDEADYYCCSYARSSTFVVFGGGTKLTVL"}, "B20": {"name": "antibody 545 (antibody, V domains shown)", "VH": "B8 VH with S85V", "VL": "B8 VL"}, "B21": {"name": "antibody 566 (antibody, V domains shown)", "VH": "QVQLVQSGAEVKKPGASVKVSCKASGYTFTSYAMHWVRQAPGQRLEWMGWINAGNGNTKYSQKFQGRVTITRDTSASTAYMELSSLRSEDTAVYYCARDLGVAVTLHPADFDYWGQGTLVTVSS", "VL": "B9 VL with G52D, G99A"}}, "note": "Where a chain is given by its changes, count along the chain named."}
{"molecular_target": "SARS-CoV-2 spike protein (wild type), spike protein trimer (SARS-CoV-2, UniProt P0DTC2 14-1208)", "assay": "not given", "units": {"Kd": "nM"}}
{"binder": "B1", "Kd": 1.8}
{"molecular_target": "SARS-CoV spike protein (full length, trimeric) (SARS-CoV, UniProt P59594 14-1190)", "assay": "not given", "units": {"fold over isotype control (median fluorescence)": "fold over isotype"}}
{"binder": "B2", "fold over isotype control (median fluorescence)": 1.09}
{"binder": "B3", "fold over isotype control (median fluorescence)": 1.1}
{"binder": "B4", "fold over isotype control (median fluorescence)": 1.09}
{"binder": "B5", "fold over isotype control (median fluorescence)": 1.12}
{"binder": "B6", "fold over isotype control (median fluorescence)": 1.1}
{"binder": "B7", "fold over isotype control (median fluorescence)": 1.3}
{"binder": "B8", "fold over isotype control (median fluorescence)": 1.04}
{"binder": "B9", "fold over isotype control (median fluorescence)": 1.18}
{"molecular_target": "SARS-CoV spike protein (full-length trimeric, conjugated to optically encoded beads) (SARS-CoV, UniProt P59594 14-1190)", "assay": "not given", "units": {"fold over isotype control (median fluorescence intensity)": "fold over isotype"}}
{"binder": "B10", "fold over isotype control (median fluorescence intensity)": 18.1}
{"binder": "B11", "fold over isotype control (median fluorescence intensity)": 6.87}
{"binder": "B12", "fold over isotype control (median fluorescence intensity)": 3.31}
{"binder": "B13", "fold over isotype control (median fluorescence intensity)": 35.4}
{"binder": "B14", "fold over isotype control (median fluorescence intensity)": 1.14}
{"binder": "B15", "fold over isotype control (median fluorescence intensity)": 1.18}
{"binder": "B16", "fold over isotype control (median fluorescence intensity)": 1.09}
{"binder": "B17", "fold over isotype control (median fluorescence intensity)": 1.05}
{"binder": "B18", "fold over isotype control (median fluorescence intensity)": 37.3}
{"binder": "B19", "fold over isotype control (median fluorescence intensity)": 1.28}
{"binder": "B20", "fold over isotype control (median fluorescence intensity)": 1.13}
{"binder": "B21", "fold over isotype control (median fluorescence intensity)": 0.97}
{"molecular_target": "spike protein of SARS-CoV-2 clinical isolate USA/WA/1/2020 (live virus) (SARS-CoV-2, UniProt P0DTC2 14-1273)", "assay": "cell-based or functional assay", "units": {"Live Virus Neutralization IC50": "µg/mL"}}
{"binder": "B1", "Live Virus Neutralization IC50": "> 10"}
{"molecular_target": "SARS-CoV-2 full-length spike protein on pseudotyped lentivirus (SARS-CoV-2, UniProt P0DTC2 14-1273)", "assay": "cell-based or functional assay", "units": {"Pseudo-neutralization IC50": "µg/mL"}}
{"binder": "B1", "Pseudo-neutralization IC50": 0.021}
